A short description of the series: Intact half-life during simulated gastric fluid (SGF) digestion. The settings on record: SGF pH 1.5, pepsin:polypeptide 1:20 w/w, 37° C.; intact protein.

The values that follow come from patent US20160228506A1, “Compositions and Formulations for Prevention and Reduction of Tumorigenesis, Cancer Cell Proliferation and Invasion, and Methods of Production and Use Thereof in Cancer Treatment” (PRONUTRIA, INC., priority 2013, published 2016).

B1: SEQID-00343: nutritive polypeptide (protein)
chain: MATLIAPSHHSRVEDAEALRNAFKGWGADDKAIIAILGHRNVHQRQEIRKAYEEIYQEDLIKRLESEISGDFERAMYRWMLQPADRDAVLVNVAIKNGTKDYHVIAEIACVLSAEELLAVRRAYHRRYKCSLEEDVAANTTGNLRQLLVGLVTSYRYEGDEINVKFSQTEANVLHESVKEKKGNSEEVIRILTTRSKTQLVATFNRYRDEHGISISKKLLDQTSDDFHKVLHTAIRCINDHKKYYEKVLRNAVKKFGTDEDGLSRVIVTRAEKDLKDIKELYYKRNSVHLEDEVSKETSGDYKKFLLTLLGK
modifications: Glycine max
For the molecule B1, the “SGF Half-life (t½)” value is 18 s.

B2: SEQID-00345: nutritive polypeptide (protein)
chain: MNTLDLQNQRILVTGGAGFLGKQVIDQLLKAGAKSENISVPRSHNCDLRNLEACQQAAKGQDIIIHLAAHVGGIGLNQVKPAELFYDNLMMGTQLIHSAYQAGVKKFVCVGTICAYPKFTPVPFQEDDLWNGYPEETNAPYGIAKKALLVQLQAYRQQYGFNGIYLLPVNLYGPEDNFNPKSSHVIPALVRKVYEAQQRGDKQLPVWGDGSPSREFLYSTDAARGIVMATQHYDEPDPVNLGTNSEVTIRDLVELICELMEFQGEIVWETDKPNGQPRRCLDTNRAKERFGFVAEVEFRQGLKNTIDWYRQNPDL
modifications: Arthrospira platensis NIES-39
Turning to B2, the “SGF Half-life (t½)” value was 48 s.

B3: SEQID-00357: nutritive polypeptide (protein)
chain: MKPLNRRTKIVATIGPASNSREVLYQMIQAGMNVVRLNFSHGSHEQHTKTVALLKEISQELKTSITLLQDLQGPKIRVGQLPDGGIQLMAGEYITLVPIDQYESKPNTIAIDYLHLGEEAEIGAQVLLDDGLLELKVEEISGNQVKCKIIEGGTLKSRKGVNLPSLTLRLPSLTEKDQQDLEFGISLGVDWVSLSFVRNAEDVRVLKDFLASKNASQISVMAKIEKPQAIANLEEIISECNGLMVARGDLGVEMSPERVPLLQKQIIRLCNQKGIPVITATQMLDSMINNPRPTRAEASDVANAIIDGTDAVMLSGESAVGKYPIRAVEMLAKIAEDVEPEINFINYPPAFNDETHAISEAINTIDKIIDLHCIIAYTCSGYTGQLAAAERPKAPVVALTPNPKVYHRLNLVWGVKPLLLEQEVESFEELINQAQTYLLVRQMASPGDKILIIGGIPSGKAKGTNFIKIHTIG
modifications: Arthrospira platensis NIES-39
As for B3, the “SGF Half-life (t½)” value was 12 s.

B4: SEQID-00001: nutritive polypeptide (protein, listed as Gallus gallus)
chain: MGSIGAASMEFCFDVFKELKVHHANENIFYCPIAIMSALAMVYLGAKDSTRTQINKVVRFDKLPGFGDSIEAQCGTSVNVHSSLRDILNQITKPNDVYSFSLASRLYAEERYPILPEYLQCVKELYRGGLEPINFQTAADQARELINSWVESQTNGIIRNVLQPSSVDSQTAMVLVNAIVFKGLWEKAFKDEDTQAMPFRVTEQESKPVQMMYQIGLFRVASMASEKMKILELPFASGTMSMLVLLPDEVSGLEQLESIINFEKLTEWTSSNVMEERKIKVYLPRMKMEEKYNLTSVLMAMGITDVFSSSANLSGISSAESLKISQAVHAAHAEINEAGREVVGSAEAGVDAASVSEEFRADHPFLFCIKHIATNAVLFFGRCVSP
In the case of B4, the “SGF Half-life (t½)” value is 300 s.

B5: SEQID-00346: nutritive polypeptide (protein)
chain: MYYDADANLDLLAGKTIAIVGYGSQGHAHALNLKDSGMNVIVGLYPGSKSATKAKDAGLTVYPVDEAAKIADLIMILLPDEVQKTVYKNEIEPNLSEGKTLAFAHGFNIHFGQVVPPENVDVIMVAPKGPGHLVRRTYQEGQGVPCLFAVYQDASGQARDRAMAYAKGIGGTRGGILETTFREETETDLFGEQAVLCGGLSALIKAGFETLVEAGYQPELAYFECLHEVKLIVDLVVEGGLAQMRDSISNTAEYGDYTRGPRVITDATRAEMRKILKEIQTGQFAREFVLENQSGKAGFTAMRRQEAEHPIEEVGHDLRAMFSWLKKKA
modifications: Arthrospira platensis NIES-39
On to B5, for which the “SGF Half-life (t½)” value is 12 s.

B6: SEQID-00354: nutritive polypeptide (protein)
chain: MSLSNKLTLDKLDVKGKRVVMRVDFNVPMKNNQITNNQRIKAAVPSIKYCLDSGAKSVVLMSHLGRPDGVPMPDKYSLQPVAVELKSLLGKDVLFLKDCVGPEVEKACADPAAGSVILLENLRFHVEEEGKGKDASGNKVKAEPTKIEAFRASLSKLGDVYVNDAFGTAHRAHSSMVGVNLPKKAGGFLMKKELNYFAKALESPERPFLAILGGAKVADKIQLISNMLDKVNEMIIGGGMAFTFLKVLNNMEIGTSLFDEEGSKIVKDLMSKADKNGVKITLPVDFVTADKFDENAKTGQATVASGIPVGWMGLDCGPESSKKYAEAVARAKQIVWNGPVGVFEWEAFARGTKALMDEVVKATSRGCITIIGGGDTATCCAKWNTEDKVSHVSTGGGASLELLEGKVLPGVDALSSV
modifications: Ovis aries
For B6, the “SGF Half-life (t½)” value is 12 s.

B7: SEQID-00356: nutritive polypeptide (protein)
chain: MATAAEKLSALKSAVAGLNEISENEKNGFISLVGRYLSGEAQHVEWSKIQTPTDEVVVPYDTLAPTPEGSSEVKNLLDKLVVLKLNGGLGTTMGCTGPKSVIEVRDGLTFLDLIVIQIENLNSKYGSNVPLLLMNSFNTHDDTQKIVEKYQNSNIEIHTFNQSQYPRLVVEDFLPLPSKGHTDKDGWYPPGHGDVFPSLLNSGKLDALLSQGKEYVFVANSDNLGAIVDLKILNHLIQNKNEYCMEVTPKTLADVKGGTLISYEGRVQLLEIAQVPDEHVNEFKSIEKFKIFNTNNLWVNLNAVKRLVEADALKMEIIPNPKEVDGIKVLQLETAAGAAIRFFDKAIGINVPRSRFLPVKATSDLLLVQSDLYTLEDGFVIRNKARENPENPSIELGPEFKKVSNFLGRFKSIPSIVELDSLKVAGDVWFGAGVILKGKVSIVSKPGVKLEVPDGVAIVDKEINGPEDL
modifications: Glycine max
On to B7, for which the “SGF Half-life (t½)” value is 12 s.

B8: SEQID-00338 (BS): nutritive polypeptide (protein, listed as Saccharomyces cerevisiae)
chain: MSSSESIRMVLIGPPGAGKGTQAPNLQERFHAAHLATGDMLRSQIAKGTQLGLEAKKIMDQGGLVSDDIMVNMIKDELTNNPACKNGFILDGFPRTIPQAEKLDQMLKEQGTPLEKAIELKVDDELLVARITGRLIHPASGRSYHKIFNPPKEDMKDDVTGEALVQRSDDNADALKKRLAAYHAQTEPIVDFYKKTGIWAGVDASQPPATVWADILNKLGKD
modifications: source: /note="strain ATCC 204508 / S288c"
With B8, the “SGF Half-life (t½)” value was 12 s.

B9: SEQID-00298 (AN): nutritive polypeptide naturally produced in Cow (protein, listed as Bos taurus)
chain: MGLSDGEWQLVLNAWGKVEADVAGHGQEVLIRLFTGHPETLEKFDKFKHLKTEAEMKASEDLKKHGNTVLTALGGILKKKGHHEAEVKHLAESHANKHKIPVKYLEFISDAIIHVLHAKHPSDFGADAQAAMSKALELFRNDMAAQYKVLGFHG
Turning to B9, the “SGF Half-life (t½)” value was 18 s.
